Assay [1] concerns the target T1, CLDN18.2 on the cell membrane surface (CHO-K1-CLDN18.2 cells, CHO-K1-CLDN18.2-CD47 cells, CHO-K1-hClaudin18.2 … (human, UniProt P56856-2 1-261)).
T1 construct: whole, on cells; also called human Claudin18.2
The assay can be described thus: indirect ELISA screening with CHO-K1-hClaudin18.2 cells as antigen. (An ELISA detects its analyte on a solid surface through an enzyme-linked reagent.)

For assay [2], the target named is T2, CD47 IgV TEV-His (human, UniProt Q08722 19-141).
T2 construct: range 19-141; also called human CD47 IgV TEV-His; not shown: his tag
Kind of assay: indirect ELISA, coated CD47-Igv-TEV-his 2 µg/mL. As for the experimental part:
After blocking, the ELISA plate was washed 3 times with PBST. The ELISA plate containing the test antibodies was incubated at 37° C. for 30 min and then washed 3 times with PBST. […] The data were analyzed and processed by SoftMax Pro 6.2.1.

Assay [3] concerns the target T3, CD47 on the cell membrane surface (CHO-K1-CLDN18.2-CD47 cells, 3T3-CD47 cells, human red blood cells, human T … (human, UniProt Q08722 19-323)).
T3 construct: whole, on cells; blood cells came from healthy human volunteers; also called cell membrane surface antigen CD47
The assay can be described thus: flow cytometry (FACS) on CHO-K1-CLDN18.2-CD47 cells, PE anti-human IgG Fc.
Protocol: CHO-K1-CLDN18.2-CD47 cells (CHO-K1 cells overexpress CLDN18.2 and CD47 antigens, and are obtained from Cell Resource Center, Institute of Basic Medical Sciences, Chinese Academy of Medical Sciences) in the logarithmic growth phase were collected, and were transferred to a V-bottomed 96-well plate at 1×10⁵ cells/well. 100 μL of 1% PBSA (PBS+1% BSA) was added, and the mixture was centrifuged at 1000×g for 5 min, followed by removal of the supernatant. […] The mixture was mixed gently and well, and then incubated on ice for 40 min. 150 μL of 1% PBSA was added to each well, and the mixture was centrifuged at 1000×g for 5 min. The supernatant was discarded, and the plate was further washed three times at 200 μL/time. […] The diluted antibody was added to corresponding samples at 100 μL/well, and the cell pellet was resuspended and incubated on ice in the dark for 0.5 h. 150 μL of 1% PBSA was added to each well, and the mixture was centrifuged at 1000 g for 5 min, followed by removal of the supernatant. Then the plate was washed twice with 200 μL of 1% PBSA. 200 μL of 1% PBSA was added to each well to resuspend the cell pellet, and the mixture was transferred to a flow cytometry tube. FACS Calibur assay was performed, and the binding activity was analyzed.

The target of a further assay is T4, CD47 ECD-His (human, UniProt Q08722 19-141, limits assumed).
T4 construct: extracellular domain; also called human CD47 ECD-His; not shown: His tag
Kind of assay: BLI (Fortebio Octet), antibody on AHC sensor, CD47 ECD-His 4.94-400 nM, 1:1 fit. On the procedure:
The affinity constant of the antibody for human CLDN18.2 and CD47 ECD-His was determined using a Fortebio Octer molecular interaction instrument. The sample dilution buffer was PBS (0.02% Tween-20, 0.1% BSA, pH 7.4). The method for detecting the affinity of the antibody for human CLDN18.2 is as follows. The antibody at 20 nM was immobilized on an AHC sensor for 60 s. The sensor was equilibrated in a buffer for 60 s, and the binding of the immobilized antibody on the sensor to CLDN18.2 His at concentrations of 6.25-100 nM (two-fold dilution) was determined for 180 s. The protein was dissociated in the buffer for 360 s. The method for detecting the affinity of the antibody to human CD47 ECD-His is as follows. The antibody at 30 nM was immobilized on an AHC sensor for 120 s. The sensor was equilibrated in a buffer for 60 s, and the binding of the immobilized antibody on the sensor to the protein CD47 ECD-His at concentrations of 4.94-400 nM (three-fold dilution) was determined for 50 s. The protein was dissociated in the buffer for 120 s. The shaking speed of the sample plate was 1000 rpm, the temperature was 30° C., and the frequency was 5.0 Hz. The data were analyzed by 1:1 model fitting to obtain affinity constants. The data acquisition software was Fortebio Data Acquisition 12.0, and the data analysis software was Fortebio Data Analysis HT 12.0.

Assay [4] addresses T3, CD47 on the cell membrane surface …. Kind of assay: competitive flow cytometry on CHO-K1-CLDN18.2-CD47 cells; competitor hSIRPaV2-hFc-mFc at 3 nM. On the procedure:
100 μL of 1% PBSA was then added to each well, and the mixture was centrifuged and washed.
Background: A flow cytometer gives signals particle by particle.

For assay [5], the target named is T5, human CLDN18.2 (ELISA coating antigen) (human, UniProt P56856-2 1-261, limits assumed).
T5 construct: also called antigen human CLDN18.2
Kind of assay: indirect ELISA, coated human CLDN18.2 2 µg/mL. As for the experimental part:
After blocking, the ELISA plate was washed 3 times with PBST. The ELISA plate containing the test antibodies was incubated at 37° C. for 30 min and then washed 3 times with PBST. […] The ELISA plate was put into a microplate reader immediately, and the OD value of each well in the ELISA plate was read at 450 nm. The data were analyzed and processed by SoftMax Pro 6.2.1.

Assay [6] addresses T2, CD47 IgV TEV-His. The assay can be described thus: indirect ELISA screening with CD47 IgV TEV-His as antigen.

B1: 8C5.1 (antibody, V domains shown)
VH: EVQLVESGGGLVKPGGSLKLSCAASGFTFSNSAVSWVRQTPEKRLEWVATITSGVSYTYYLDSVRGRFTISRDNAKNTLYLQMSSLRSEDTAMYYCTRQFKGNALDYWGQGTSVTVSS
VL: DIVMTQSPSSLTVTAGEKVTMSCKSSQSLLNSGNQKNYLTWYQQKPGQPPKLLIYWASTRESGVPDRFTGSGSGTDFTLTINNFQAEDLAVYYCQNDYFYPLTFGAGTKLELK
notes: Mouse hybridoma antibody; also called anti-CLDN18.2 antibody 8C5.1; monoclonal antibody secreted by hybridoma cell line LT020
As to B1, the binding result in assay [1] is given as “binds”.

B2: 6F7H1L1(hG4) (antibody, V domains shown)
VH: QVQLVQSGAEVVKPGASVKLSCKASGYTFTSYWMNWVRQRPGQGLEWIGMIDPSDSETHNAQKFQGKATLTVDKSTSTAYMHLSSLRSEDTAVYYCARLYRWYFDVWGAGTTVTVSS
VL: NIVMTQSPATMSMSPGERVTLSCRASEIVGTYVSWFQQKPGQAPRLLIYGASNRYTGVPARFSGSGSGTDFTLTISSVQPEDLADYHCGQSYNFPYTFGGGTKLEIKR
Take B2: the EC50 (commonly the concentration needed to bring the measured effect to its halfway point) with CD47 IgV TEV-His [2] is 0.012 nM. Also, in assay [3], a half-maximal effect (EC50) was put at 1.29 nM. In addition, in the assay with CD47 ECD-His, the Kd (commonly the concentration at which binding is half-saturated) was 27.3 nM, the koff (usually the first-order rate constant of dissociation) came out at 0.0142 s⁻¹ and the kon (usually a measure of how fast the partners come together) was 519000 M⁻¹ s⁻¹. Also, it took 5 nM to reach a half-maximal effect in assay [4] (EC50).

B3: IMAB362 (antibody, V domains shown)
VH: QVQLQQPGAELVRPGASVKLSCKASGYTFTSYWINWVKQRPGQGLEWIGNIYPSDSYTNYNQKFKDKATLTVDKSSSTAYMQLSSPTSEDSAVYYCTRSWRGNSFDYWGQGTTLTVSS
VL: DIVMTQSPSSLTVTAGEKVTMSCKSSQSLLNSGNQKNYLTWYQQKPGQPPKLLIYWASTRESGVPDRFTGSGSGTDFTLTISSVQAEDLAVYYCQNDYSYPFTFGSGTKLEIKR
B3 had an EC50 in assay [5] of 0.014 nM.

B4: 6F7 (antibody, V domains shown)
VH: QVQLQQPGAELVRPGASVKLSCKASGYTFTSYWMNWVKQRPGQGLEWIGMIDPSDSETHNNQMFKDKATLTVDKSSNTAYMHLSSLTSEDSAVYHCARLYRWYFDVWGAGTTVTVSS
VL: NIVMTQSPKSMSMSLGERVTLSCKASEIVGTYVSWFQQKPHQSPKLLIYGASNRYTGVPDRFTGSGSATDFTLTISNVQAEDLADYHCGQSYNFPYTFGGGTKLEIK
notes: Mouse hybridoma antibody; also called anti-CD47 antibody 6F7; monoclonal antibody secreted by hybridoma cell line LT012
With B4, the binding result with CD47 IgV TEV-His [6] is on record as “binds”.

Values taken from patent US20250368735A1 (AKESO BIOPHARMA, published 2025).
